Values of other authors in publication PMC3078175.

Target: IL-17RB (Homo sapiens) (UniProt Q9NRM6)
Sequence of UniProt Q9NRM6 (Q9NRM6 18-292): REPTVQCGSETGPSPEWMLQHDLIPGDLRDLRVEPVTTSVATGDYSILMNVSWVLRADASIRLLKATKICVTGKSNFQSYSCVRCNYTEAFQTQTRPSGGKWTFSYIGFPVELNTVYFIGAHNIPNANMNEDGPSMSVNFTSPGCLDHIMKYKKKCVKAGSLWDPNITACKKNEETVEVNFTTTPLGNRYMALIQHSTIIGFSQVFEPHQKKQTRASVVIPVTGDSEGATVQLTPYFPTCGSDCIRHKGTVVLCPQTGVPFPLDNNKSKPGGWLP

For IL-17B (from UniProt Q9UHF5), the Kd is listed as 7.6 nM.
